Data: patent US20230093708A1, “PROTEIN NANOPARTICLE DESIGN AND APPLICATION” (Duke University, priority 2020, published 2023)

B1: RLP80-ELP160: RLP-ELP block co-polypeptide, 80 core and 160 corona repeats (protein)
chain: QYPSDGRGQYPSDGRGQYPSDGRGQYPSDGRGQYPSDGRGQYPSDGRGQYPSDGRGQYPSDGRGQYPSDGRGQYPSDGRGQYPSDGRGQYPSDGRGQYPSDGRGQYPSDGRGQYPSDGRGQYPSDGRGQYPSDGRGQYPSDGRGQYPSDGRGQYPSDGRGQYPSDGRGQYPSDGRGQYPSDGRGQYPSDGRGQYPSDGRGQYPSDGRGQYPSDGRGQYPSDGRGQYPSDGRGQYPSDGRGQYPSDGRGQYPSDGRGQYPSDGRGQYPSDGRGQYPSDGRGQYPSDGRGQYPSDGRGQYPSDGRGQYPSDGRGQYPSDGRGQYPSDGRGQYPSDGRGQYPSDGRGQYPSDGRGQYPSDGRGQYPSDGRGQYPSDGRGQYPSDGRGQYPSDGRGQYPSDGRGQYPSDGRGQYPSDGRGQYPSDGRGQYPSDGRGQYPSDGRGQYPSDGRGQYPSDGRGQYPSDGRGQYPSDGRGQYPSDGRGQYPSDGRGQYPSDGRGQYPSDGRGQYPSDGRGQYPSDGRGQYPSDGRGQYPSDGRGQYPSDGRGQYPSDGRGQYPSDGRGQYPSDGRGQYPSDGRGQYPSDGRGQYPSDGRGQYPSDGRGQYPSDGRGQYPSDGRGQYPSDGRGQYPSDGRGQYPSDGRGGAGVPGGGVPGAGVPGGGVPGAGVPGGGVPGAGVPGGGVPGAGVPGGGVPGAGVPGGGVPGAGVPGGGVPGAGVPGGGVPGAGVPGGGVPGAGVPGGGVPGAGVPGGGVPGAGVPGGGVPGAGVPGGGVPGAGVPGGGVPGAGVPGGGVPGAGVPGGGVPGAGVPGGGVPGAGVPGGGVPGAGVPGGGVPGAGVPGGGVPGAGVPGGGVPGAGVPGGGVPGAGVPGGGVPGAGVPGGGVPGAGVPGGGVPGAGVPGGGVPGAGVPGGGVPGAGVPGGGVPGAGVPGGGVPGAGVPGGGVPGAGVPGGGVPGAGVPGGGVPGAGVPGGGVPGAGVPGGGVPGAGVPGGGVPGAGVPGGGVPGAGVPGGGVPGAGVPGGGVPGAGVPGGGVPGAGVPGGGVPGAGVPGGGVPGAGVPGGGVPGAGVPGGGVPGAGVPGGGVPGAGVPGGGVPGAGVPGGGVPGAGVPGGGVPGAGVPGGGVPGAGVPGGGVPGAGVPGGGVPGAGVPGGGVPGAGVPGGGVPGAGVPGGGVPGAGVPGGGVPGAGVPGGGVPGAGVPGGGVPGAGVPGGGVPGAGVPGGGVPGAGVPGGGVPGAGVPGGGVPGAGVPGGGVPGAGVPGGGVPGAGVPGGGVPGAGVPGGGVPGAGVPGGGVPGAGVPGGGVPGAGVPGGGVPGAGVPGGGVPGAGVPGGGVPGAGVPGGGVPGAGVPGGGVPGAGVPGGGVPGAGVPGGGVPGAGVPGGGVPGAGVPGGGVPGAGVPGGGVPGAGVPGGGVPGAGVPGGGVPGAGVPGGGVPGAGVPGGGVP
B2: RLP40-ELP160: RLP-ELP block co-polypeptide, 40 core and 160 corona repeats (protein)
chain: QYPSDGRGQYPSDGRGQYPSDGRGQYPSDGRGQYPSDGRGQYPSDGRGQYPSDGRGQYPSDGRGQYPSDGRGQYPSDGRGQYPSDGRGQYPSDGRGQYPSDGRGQYPSDGRGQYPSDGRGQYPSDGRGQYPSDGRGQYPSDGRGQYPSDGRGQYPSDGRGQYPSDGRGQYPSDGRGQYPSDGRGQYPSDGRGQYPSDGRGQYPSDGRGQYPSDGRGQYPSDGRGQYPSDGRGQYPSDGRGQYPSDGRGQYPSDGRGQYPSDGRGQYPSDGRGQYPSDGRGQYPSDGRGQYPSDGRGQYPSDGRGQYPSDGRGQYPSDGRGGAGVPGGGVPGAGVPGGGVPGAGVPGGGVPGAGVPGGGVPGAGVPGGGVPGAGVPGGGVPGAGVPGGGVPGAGVPGGGVPGAGVPGGGVPGAGVPGGGVPGAGVPGGGVPGAGVPGGGVPGAGVPGGGVPGAGVPGGGVPGAGVPGGGVPGAGVPGGGVPGAGVPGGGVPGAGVPGGGVPGAGVPGGGVPGAGVPGGGVPGAGVPGGGVPGAGVPGGGVPGAGVPGGGVPGAGVPGGGVPGAGVPGGGVPGAGVPGGGVPGAGVPGGGVPGAGVPGGGVPGAGVPGGGVPGAGVPGGGVPGAGVPGGGVPGAGVPGGGVPGAGVPGGGVPGAGVPGGGVPGAGVPGGGVPGAGVPGGGVPGAGVPGGGVPGAGVPGGGVPGAGVPGGGVPGAGVPGGGVPGAGVPGGGVPGAGVPGGGVPGAGVPGGGVPGAGVPGGGVPGAGVPGGGVPGAGVPGGGVPGAGVPGGGVPGAGVPGGGVPGAGVPGGGVPGAGVPGGGVPGAGVPGGGVPGAGVPGGGVPGAGVPGGGVPGAGVPGGGVPGAGVPGGGVPGAGVPGGGVPGAGVPGGGVPGAGVPGGGVPGAGVPGGGVPGAGVPGGGVPGAGVPGGGVPGAGVPGGGVPGAGVPGGGVPGAGVPGGGVPGAGVPGGGVPGAGVPGGGVPGAGVPGGGVPGAGVPGGGVPGAGVPGGGVPGAGVPGGGVPGAGVPGGGVPGAGVPGGGVPGAGVPGGGVPGAGVPGGGVPGAGVPGGGVPGAGVPGGGVPGAGVPGGGVPGAGVPGGGVPGAGVPGGGVPGAGVPGGGVP
B3: RLP40-ELP40: RLP-ELP block co-polypeptide, 40 core and 40 corona repeats (protein)
chain: QYPSDGRGQYPSDGRGQYPSDGRGQYPSDGRGQYPSDGRGQYPSDGRGQYPSDGRGQYPSDGRGQYPSDGRGQYPSDGRGQYPSDGRGQYPSDGRGQYPSDGRGQYPSDGRGQYPSDGRGQYPSDGRGQYPSDGRGQYPSDGRGQYPSDGRGQYPSDGRGQYPSDGRGQYPSDGRGQYPSDGRGQYPSDGRGQYPSDGRGQYPSDGRGQYPSDGRGQYPSDGRGQYPSDGRGQYPSDGRGQYPSDGRGQYPSDGRGQYPSDGRGQYPSDGRGQYPSDGRGQYPSDGRGQYPSDGRGQYPSDGRGQYPSDGRGQYPSDGRGGAGVPGGGVPGAGVPGGGVPGAGVPGGGVPGAGVPGGGVPGAGVPGGGVPGAGVPGGGVPGAGVPGGGVPGAGVPGGGVPGAGVPGGGVPGAGVPGGGVPGAGVPGGGVPGAGVPGGGVPGAGVPGGGVPGAGVPGGGVPGAGVPGGGVPGAGVPGGGVPGAGVPGGGVPGAGVPGGGVPGAGVPGGGVPGAGVPGGGVP
B4: RLP40-ELPV80: RLP-ELP block co-polypeptide with Val guest residue in the corona (protein)
chain: QYPSDGRGQYPSDGRGQYPSDGRGQYPSDGRGQYPSDGRGQYPSDGRGQYPSDGRGQYPSDGRGQYPSDGRGQYPSDGRGQYPSDGRGQYPSDGRGQYPSDGRGQYPSDGRGQYPSDGRGQYPSDGRGQYPSDGRGQYPSDGRGQYPSDGRGQYPSDGRGQYPSDGRGQYPSDGRGQYPSDGRGQYPSDGRGQYPSDGRGQYPSDGRGQYPSDGRGQYPSDGRGQYPSDGRGQYPSDGRGQYPSDGRGQYPSDGRGQYPSDGRGQYPSDGRGQYPSDGRGQYPSDGRGQYPSDGRGQYPSDGRGQYPSDGRGQYPSDGRGGVGVPGVGVPGVGVPGVGVPGVGVPGVGVPGVGVPGVGVPGVGVPGVGVPGVGVPGVGVPGVGVPGVGVPGVGVPGVGVPGVGVPGVGVPGVGVPGVGVPGVGVPGVGVPGVGVPGVGVPGVGVPGVGVPGVGVPGVGVPGVGVPGVGVPGVGVPGVGVPGVGVPGVGVPGVGVPGVGVPGVGVPGVGVPGVGVPGVGVPGVGVPGVGVPGVGVPGVGVPGVGVPGVGVPGVGVPGVGVPGVGVPGVGVPGVGVPGVGVPGVGVPGVGVPGVGVPGVGVPGVGVPGVGVPGVGVPGVGVPGVGVPGVGVPGVGVPGVGVPGVGVPGVGVPGVGVPGVGVPGVGVPGVGVPGVGVPGVGVPGVGVPGVGVPGVGVPGVGVPGVGVPGVGVPGVGVPGVGVP

Assays:
[1] = Cryo-TEM micelle core size, inter-core spacing and aspect ratio; format: physicochemical; conditions: for Spacing (nm): inter-core spacing; for Spacing (nm) / Core radius (nm): mean ± standard deviation
Experimental: Using the data from FIG. 18, particularly the longest straight line of an individual particle and a corresponding perpendicular measurement were made to describe the aspect ratio of particles observed.
Cryo-TEM experiments were performed at Duke University's Shared Materials Instrumentation Facility (Durham, N.C.). Lacey holey carbon grids (Ted Pella, Redding, Calif.) were glow discharged in a PELCO EasiGlow Cleaning System (Ted Pella, Redding, Calif.). A 3 μL drop (10 μM RLPn-ELP80) was deposited onto the grid, blotted for 3 s with an offset of −3 mm, and vitrified in liquid ethane using the Vitrobot Mark III (FEI, Eindhoven, Netherlands). Prior to vitrification, the sample chamber was maintained at 15° C. and 100% relative humidity to prevent sample evaporation. Grids were transferred to a Gatan 626 cryoholder (Gatan, Pleasanton, Calif.) and imaged with a FEI Tecnai G2 Twin TEM (FEI, Eindhoven, Netherlands), operating at 80 keV. Feature sizes and spacing distances were measured in ImageJ by manual measurement of at least 25 particles.

[2] = Static and dynamic light scattering (SLS/DLS) of block co-polypeptides; format: physicochemical; conditions: for Nagg / Rg(nm) / Rh (nm): 10 μM in PBS, 15 °C; for ρ: shape factor Rg/Rh
Experimental: Key parameters of interest are the hydrophilicity of the corona-forming block, the hydrophilicity of the core block, the overall length of the co-polypeptide and the ratio of the two blocks. Parameters of evaluation are the size, morphology, stability, and thermoresponsive behavior. All measurements were made in 140 mM NaCl, 10 mM phosphate buffer, 3 mM KCl, pH 7.4 unless otherwise specified. Size was evaluated by the hydrodynamic radios (Rh) and radius of gyration (Rg) by dynamic light scattering (DLS) and static light scattering (SLS) respectively. Rg and Rh can be combined to yield the shape factor ρ=Rg/Rh, which provides a rough indication of the morphology of the scatterer. […] For an elongated scatterer, the shape factor depends upon the aspect ratio. A combination of temperature dependent turbidity and DLS was utilized to determine the phase behavior of the block co-polypeptides. Cryogenic transmission electron microscopy (Cryo-TEM) was utilized to evaluate the morphology and provide crucial insight into the hydration of the core/corona chains. Stability of the assembled nanostructure was determined by a shift in the I1/I3 fluorescent bands of pyrene as described previously.
Static and dynamic light scattering measurements (SLS/DLS) were performed using an ALV/CGS-3 goniometer system (Langen, Germany). Samples for the ALV/CGS-3 goniometer system were prepared at a concentration of 10 μM in PBS and filtered through 0.45 μm Millex-GV filters into a 10 mm disposable borosilicate glass tube (Fischer). Simultaneous SLS and DLS measurements were obtained at 15° C. of the ELP for angles between 30°-150° at 5° increments, with each angle consisting of 3 runs for 15 s. SLS experiments were only conducted for self-assembling block co-polypeptides, since the molecular weight of a single block co-polypeptide chain is already known, and the Rg of a single chain is likely near or below the detection limit of the SLS instrument. The differential refractive index (dn/dc) was determined by measuring the refractive index at different concentrations using an Abbemat 500 refractometer (Anton Paar, Graz, Austria). DLS data were analyzed by fitting the autocorrelation function with a cumulant fit, using the built-in ALV software. Hydrodynamic radius (Rh) was plotted against angle and extrapolated to zero. SLS data were analyzed by partial Zimm plots using ALVSTAT software in order to determine the Rg and molecular weight (MW).

Molecule	Spacing (nm) ([1]; Table 4)	Core radius (nm) ([1]; Table 4)	hydrodynamic radius (Rh) [2] [nm]	radius of gyration (Rg) [2] [nm]	shape factor / form factor (Rg/Rh) [2]	Nagg ([2]; Table 3)	Rg(nm) ([2]; Table 3)	Rh (nm) ([2]; Table 3)	ρ ([2]; Table 3)	core radius (cryo-TEM) [1] [nm]	spacing between particle cores (cryo-TEM) [1] [nm]	Spacing (nm) ([1]; Table 6)	Core radius (nm) ([1]; Table 6)	Nagg ([2]; Table 5)	Rg(nm) ([2]; Table 5)	Rh (nm) ([2]; Table 5)	ρ ([2]; Table 5)
B1	59.0 ± 13.2	29.3 ± 4.5	93.3	78.2	0.8	1728	78.2	93.5	0.84	–	–	–	–	–	–	–	–
B2	22.3 ± 5.2	11.0 ± 1.6	92.3	70.8	0.8	246	70.8	92.3	0.8	11.0	22.3	–	–	–	–	–	–
B3	19.5 ± 4.3	11.8 ± 1.6	52.6	56.2	greater than 1	91	56.2	52.6	1.13	11.8	19.5	–	–	–	–	–	–
B4	–	–	–	–	> 1	–	–	–	–	–	–	19.4 ± 4.4	14.5 ± 3.6	213	33.1	31.7	1.04
